From the supplement of paper PMC5998384

Tests used:
HeLa Kyoto [1] = assay: solubility in G1/S (NP-40 vs SDS abundance) (log2 ratio); higher = more soluble; settings: cell cycle stage: G1/S
HeLa Kyoto [2] = assay: melting temperature (median over replicates), in situ; higher = more thermally stable
HeLa Kyoto [3] = assay: solubility change mitosis vs G1/S (difference of NP-40 vs SDS log2 ratios) (log2 ratio difference); higher = more soluble in mitosis
HeLa Kyoto [4] = assay: thermal stability score vs G1/S (z-score of summed log2 fold changes over temperatures); higher = more thermally stable than in G1/S
[5] = cell cycle stage: early G1 (4.5 h after nocodazole release)
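Throughout, for melting temperature (median over replicates), in situ: HeLa Kyoto cells synchronized by double thymidine or nocodazole block, proteins quantified by TMT10plex mass spectrometry, three independent biological replicates.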
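Throughout, for solubility change mitosis vs G1/S (difference of NP-40 vs SDS log2 ratios): synchronized HeLa Kyoto cells (double thymidine block for G1/S, nocodazole release for mitosis), protein amounts in NP-40 versus SDS lysates quantified by mass spectrometry, three biological replicates.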
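Throughout, for solubility in G1/S (NP-40 vs SDS abundance): HeLa Kyoto cells arrested at G1/S by double thymidine block, proteins quantified by TMT10plex mass spectrometry in mild NP-40 versus SDS extracts, three biological replicates.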
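Throughout, for thermal stability score vs G1/S (z-score of summed log2 fold changes over temperatures): synchronized HeLa Kyoto cells, proteins quantified by TMT10plex mass spectrometry, three biological replicates, mitosis taken 0.5 h after nocodazole release, G1/S directly after double thymidine block.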

CIAO1, sequence (chain, as listed by the source): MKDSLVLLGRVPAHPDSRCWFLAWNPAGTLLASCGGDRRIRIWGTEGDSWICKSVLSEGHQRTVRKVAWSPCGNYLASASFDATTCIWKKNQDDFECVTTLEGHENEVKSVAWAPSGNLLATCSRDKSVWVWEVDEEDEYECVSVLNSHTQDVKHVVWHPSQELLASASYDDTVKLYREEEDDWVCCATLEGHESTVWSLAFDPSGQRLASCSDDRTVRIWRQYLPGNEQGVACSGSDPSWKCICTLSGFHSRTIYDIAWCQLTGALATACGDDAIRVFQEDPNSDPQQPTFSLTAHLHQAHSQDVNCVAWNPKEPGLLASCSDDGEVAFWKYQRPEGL

Substance	solubility in G1/S (log2) (HeLa Kyoto [1])	melting temperature (HeLa Kyoto [2]; cell cycle stage: G1/S)	melting temperature (HeLa Kyoto [2]; cell cycle stage: mitosis)	solubility change mitosis (log2) (HeLa Kyoto [3])	thermal stability score (HeLa Kyoto [4]; [5])	thermal stability score (HeLa Kyoto [4]; cell cycle stage: mitosis)
MSTEGGFGGTSSSDAQQSLQSFWPRVMEEIRNLTVKDFRVQELPLARIKKIMKLDEDVKMISAEAPVLFAKAAQIFITELTLRAWIHTEDNKRRTLQRNDIAMAITKFDQFDFLIDIVPRDELKPPKRQEEVRQSVTPAEPVQYYFTLAQQPTAVQVQGQQQGQQTTSSTTTIQPGQIIIAQPQQGQTTPVTMQVGEGQQVQIVQAQPQGQAQQAQSGTGQTMQVMQQIITNTGEIQQIPVQLNAGQLQYIRLAQPVSGTQVVQGQIQTLATNAQQGQRNASQGKPRRCLKETLQITQTEVQQGQQQFSQFTDGQRNSVQQARVSELTGEAEPREVKATGNSTPCTSSLPTTHPPSHRAGASCVCCSQPQQSSTSPPPSDALQWVVVEVSGTPNQLETHRELHAPLPGMTSLSPLHPSQQLYQIQQVTMPAGQDLAQPMFIQSANQPSDGQAPQVTGD [NFYC]	0.266	54.7 °C	54.3 °C	-0.174	-0.186	-0.549
CIAO1	-0.222	52.5 °C	52.9 °C	-0.176	-0.588	-2.26
MSRSVLQPSQQKLAEKLTILNDRGVGMLTRLYNIKKACGDPKAKPSYLIDKNLESAVKFIVRKFPAVETRNNNQQLAQLQKEKSEILKNLALYYFTFVDVMEFKDHVCELLNTIDVCQVFFDITVNFDLTKNYLDLIITYTTLMILLSRIEERKAIIGLYNYAHEMTHGASDREYPRLGQMIVDYENPLKKMMEEFVPHSKSLSDALISLQMVYPRRNLSADQWRNAQLLSLISAPSTMLNPAQSDTMPCEYLSLDAMEKWIIFGFILCHGILNTDATALNLWKLALQSSSCLSLFRDEVFHIHKAAEDLFVNIRGYNKRINDIRECKEAAVSHAGSMHRERRKFLRSALKELATVLSDQPGLLGPKALFVFMALSFARDEIIWLLRHADNMPKKSADDFIDKHIAELIFYMEELRAHVRKYGPVMQRYYVQYLSGFDAVVLNELVQNLSVCPEDESIIMSSFVNTMTSLSVKQVEDGEVFDFRGMRLDWFRLQAYTSVSKASLGLADHRELGKMMNTIIFHTKMVDSLVEMLVETSDLSIFCFYSRAFEKMFQQCLELPSQSRYSIAFPLLCTHFMSCTHELCPEERHHIGDRSLSLCNMFLDEMAKQARNLITDICTEQCTLSDQLLPKHCAKTISQAVNKKSKKQTGKKGEPEREKPGVESMRKNRLVVTNLDKLHTALSELCFSINYVPNMVVWEHTFTPREYLTSHLEIRFTKSIVGMTMYNQATQEIAKPSELLTSVRAYMTVLQSIENYVQIDITRVFNNVLLQQTQHLDSHGEPTITSLYTNWYLETLLRQVSNGHIAYFPAMKAFVNLPTENELTFNAEEYSDISEMRSLSELLGPYGMKFLSESLMWHISSQVAELKKLVVENVDVLTQMRTSFDKPDQMAALFKRLSSVDSVLKRMTIIGVILSFRSLAQEALRDVLSYHIPFLVSSIEDFKDHIPRETDMKVAMNVYELSSAAGLPCEIDPALVVALSSQKSENISPEEEYKIACLLMVFVAVSLPTLASNVMSQYSPAIEGHCNNIHCLAKAINQIAAALFTIHKGSIEDRLKEFLALASSSLLKIGQETDKTTTRNRESVYLLLDMIVQESPFLTMDLLESCFPYVLLRNAYHAVYKQSVTSSA [NCKAP1]	-0.214	51.5 °C	51.1 °C	-0.159	-0.278	-0.186
MDPQRSPLLEVKGNIELKRPLIKAPSQLPLSGSRLKRRPDQMEDGLEPEKKRTRGLGATTKITTSHPRVPSLTTVPQTQGQTTAQKVSKKTGPRCSTAIATGLKNQKPVPAVPVQKSGTSGVPPMAGGKKPSKRPAWDLKGQLCDLNAELKRCRERTQTLDQENQQLQDQLRDAQQQVKALGTERTTLEGHLAKVQAQAEQGQQELKNLRACVLELEERLSTQEGLVQELQKKQVELQEERRGLMSQLEEKERRLQTSEAALSSSQAEVASLRQETVAQAALLTEREERLHGLEMERRRLHNQLQELKGNIRVFCRVRPVLPGEPTPPPGLLLFPSGPGGPSDPPTRLSLSRSDERRGTLSGAPAPPTRHDFSFDRVFPPGSGQDEVFEEIAMLVQSALDGYPVCIFAYGQTGSGKTFTMEGGPGGDPQLEGLIPRALRHLFSVAQELSGQGWTYSFVASYVEIYNETVRDLLATGTRKGQGGECEIRRAGPGSEELTVTNARYVPVSCEKEVDALLHLARQNRAVARTAQNERSSRSHSVFQLQISGEHSSRGLQCGAPLSLVDLAGSERLDPGLALGPGERERLRETQAINSSLSTLGLVIMALSNKESHVPYRNSKLTYLLQNSLGGSAKMLMFVNISPLEENVSESLNSLRFASKVNQCVIGTAQANRK [KIFC1]	0.0107	47.4 °C	48.8 °C	0.12	3.16	4.4
MSAFDTNPFADPVDVNPFQDPSVTQLTNAPQGGLAEFNPFSETNAATTVPVTQLPGSSQPAVLQPSVEPTQPTPQAVVSAAQAGLLRQQEELDRKAAELERKERELQNTVANLHVRQNNWPPLPSWCPVKPCFYQDFSTEIPADYQRICKMLYYLWMLHSVTLFLNLLACLAWFSGNSSKGVDFGLSILWFLIFTPCAFLCWYRPIYKAFRSDNSFSFFVFFFVFFCQIGIYIIQLVGIPGLGDSGWIAALSTLDNHSLAISVIMMVVAGFFTLCAVLSVFLLQRVHSLYRRTGASFQQAQEEFSQGIFSSRTFHRAASSAAQGAFQGN [SCAMP2]	0.177	58.4 °C	56.6 °C	-0.103	-1.72	-3.07
MPFPVTTQGSQQTQPPQKHYGITSPISLAAPKETDCVLTQKLIETLKPFGVFEEEEELQRRILILGKLNNLVKEWIREISESKNLPQSVIENVGGKIFTFGSYRLGVHTKGADIDALCVAPRHVDRSDFFTSFYDKLKLQEEVKDLRAVEEAFVPVIKLCFDGIEIDILFARLALQTIPEDLDLRDDSLLKNLDIRCIRSLNGCRVTDEILHLVPNIDNFRLTLRAIKLWAKRHNIYSNILGFLGGVSWAMLVARTCQLYPNAIASTLVHKFFLVFSKWEWPNPVLLKQPEECNLNLPVWDPRVNPSDRYHLMPIITPAYPQQNSTYNVSVSTRMVMVEEFKQGLAITDEILLSKAEWSKLFEAPNFFQKYKHYIVLLASAPTEKQRLEWVGLVESKIRILVGSLEKNEFITLAHVNPQSFPAPKENPDKEEFRTMWVIGLVFKKTENSENLSVDLTYDIQSFTDTVYRQAINSKMFEVDMKIAAMHVKRKQLHQLLPNHVLQKKKKHSTEGVKLTALNDSSLDLSMDSDNSMSVPSPTSATKTSPLNSSGSSQGRNSPAPAVTAASVTNIQATEVSVPQVNSSESSGGTSSESIPQTATQPAISPPPKPTVSRVVSSTRLVNPPPRSSGNAATSGNAATKIPTPIVGVKRTSSPHKEESPKKTKTEEDETSEDANCLALSGHDKTEAKEQLDTETSTTQSETIQTAASLLASQKTSSTDLSDIPALPANPIPVIKNSIKLRLNR [PAPOLA]	0.109	51.6 °C	52 °C	-0.238	1.44	1.67
MAAAGQLCLLYLSAGLLSRLGAAFNLDTREDNVIRKYGDPGSLFGFSLAMHWQLQPEDKRLLLVGAPRAEALPLQRANRTGGLYSCDITARGPCTRIEFDNDADPTSESKEDQWMGVTVQSQGPGGKVVTCAHRYEKRQHVNTKQESRDIFGRCYVLSQNLRIEDDMDGGDWSFCDGRLRGHEKFGSCQQGVAATFTKDFHYIVFGAPGTYNWKGIVRVEQKNNTFFDMNIFEDGPYEVGGETEHDESLVPVPANSYLGLLFLTSVSYTDPDQFVYKTRPPREQPDTFPDVMMNSYLGFSLDSGKGIVSKDEITFVSGAPRANHSGAVVLLKRDMKSAHLLPEHIFDGEGLASSFGYDVAVVDLNKDGWQDIVIGAPQYFDRDGEVGGAVYVYMNQQGRWNNVKPIRLNGTKDSMFGIAVKNIGDINQDGYPDIAVGAPYDDLGKVFIYHGSANGINTKPTQVLKGISPYFGYSIAGNMDLDRNSYPDVAVGSLSDSVTIFRSRPVINIQKTITVTPNRIDLRQKTACGAPSGICLQVKSCFEYTANPAGYNPSISIVGTLEAEKERRKSGLSSRVQFRNQGSEPKYTQELTLKRQKQKVCMEETLWLQDNIRDKLRPIPITASVEIQEPSSRRRVNSLPEVLPILNSDEPKTAHIDVHFLKEGCGDDNVCNSNLKLEYKFCTREGNQDKFSYLPIQKGVPELVLKDQKDIALEITVTNSPSNPRNPTKDGDDAHEAKLIATFPDTLTYSAYRELRAFPEKQLSCVANQNGSQADCELGNPFKRNSNVTFYLVLSTTEVTFDTPDLDINLKLETTSNQDNLAPITAKAKVVIELLLSVSGVAKPSQVYFGGTVVGEQAMKSEDEVGSLIEYEFRVINLGKPLTNLGTATLNIQWPKEISNGKWLLYLVKVESKGLEKVTCEPQKEINSLNLTESHNSRKKREITEKQIDDNRKFSLFAERKYQTLNCSVNVNCVNIRCPLRGLDSKASLILRSRLWNSTFLEEYSKLNYLDILMRAFIDVTAAAENIRLPNAGTQVRVTVFPSKTVAQYSGVPWWIILVAILAGILMLALLVFILWKCGFFKRSRYDDSVPRYHAVRIRKEEREIKDEKYIDNLEKKQWITKWNENESYS [ITGA6]	0.154	55.4 °C	55.6 °C	-0.116	-2.3	-1.75
MSDKDDIETPLLTEAAPILEDGNCEPAKNSESVDQGAKPESKSEPVVSTRKRPETKPSSDLETSKVLPIQDNVSKDVPQTRWGYWGSWGKSILSSASATVATVGQGISNVIEKAETSLGIPGPSEISTEVKYVAGETNAKENENSSPVAGAFGVFSTISTAVQSTGKSVISGGLDALEFIGKKTMDVIAEGDPGFKRTKGLMNRNATLSQVLREAKEKEEIRTSNEVTVETDKKTHYGLLFDEFQGLSHLEALEMLSQESEIKVKSILNSLSGEELETLKVELEQLKETFSLAEFCEEEEEEKKGDEDFTKDITELFSQLHVSSKPEKLARARNTAHEWIRKSLTKPLAENEEGEKQSEAENTEQVNKNSIEDIHAFAIRSLAELTACSIELFHKTAALVLHGRKQEVTAIERSQTLSQMTIVLCKELSSLSKEFTTCLTTAGVKEMADVLNPLITAVFLEASNSASYIQDAFQLLLPVLEISLIENKIESHRHELQGQKPLLEH [FAM114A2]	0.326	52.3 °C	52 °C	-0.0154	0.464	0.0988
